US20210347858A1

Biological target: human ACE2 receptor protein (hACE2) pre-coated on the plate of the GenScript sVNT C-Pass Kit (human) (UniProt Q9BYF1)
Test: modified GenScript sVNT (FIG. 28), competitor HRP-RBD

Chain of UniProt Q9BYF1 (Q9BYF1 18-740 limits assumed): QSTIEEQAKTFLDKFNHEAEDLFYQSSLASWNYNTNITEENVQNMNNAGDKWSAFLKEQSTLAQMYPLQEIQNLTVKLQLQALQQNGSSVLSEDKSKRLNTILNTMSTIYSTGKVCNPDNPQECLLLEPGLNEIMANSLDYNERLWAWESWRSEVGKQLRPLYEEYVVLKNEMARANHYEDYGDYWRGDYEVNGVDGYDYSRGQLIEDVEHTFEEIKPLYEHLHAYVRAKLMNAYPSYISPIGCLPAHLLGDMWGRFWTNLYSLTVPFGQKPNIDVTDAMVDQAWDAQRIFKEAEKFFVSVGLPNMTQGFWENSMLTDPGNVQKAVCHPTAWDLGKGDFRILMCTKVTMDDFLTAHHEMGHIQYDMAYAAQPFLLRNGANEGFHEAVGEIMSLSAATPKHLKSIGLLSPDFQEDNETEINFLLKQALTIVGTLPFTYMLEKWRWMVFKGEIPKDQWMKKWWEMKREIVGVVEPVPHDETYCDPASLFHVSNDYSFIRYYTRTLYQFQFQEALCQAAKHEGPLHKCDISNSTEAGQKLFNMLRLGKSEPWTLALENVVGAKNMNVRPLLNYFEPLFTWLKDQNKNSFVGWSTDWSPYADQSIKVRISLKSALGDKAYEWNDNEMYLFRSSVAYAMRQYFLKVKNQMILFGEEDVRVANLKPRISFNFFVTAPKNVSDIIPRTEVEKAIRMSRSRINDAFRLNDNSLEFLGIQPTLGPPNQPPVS

Serum from uninoculated (non-targeted) chickens (antibody)
percent inhibition of RBD:ACE2 binding: < 5%
